# T1: human FAP on cells (human, UniProt Q12884 1-760)
# T1 sequence: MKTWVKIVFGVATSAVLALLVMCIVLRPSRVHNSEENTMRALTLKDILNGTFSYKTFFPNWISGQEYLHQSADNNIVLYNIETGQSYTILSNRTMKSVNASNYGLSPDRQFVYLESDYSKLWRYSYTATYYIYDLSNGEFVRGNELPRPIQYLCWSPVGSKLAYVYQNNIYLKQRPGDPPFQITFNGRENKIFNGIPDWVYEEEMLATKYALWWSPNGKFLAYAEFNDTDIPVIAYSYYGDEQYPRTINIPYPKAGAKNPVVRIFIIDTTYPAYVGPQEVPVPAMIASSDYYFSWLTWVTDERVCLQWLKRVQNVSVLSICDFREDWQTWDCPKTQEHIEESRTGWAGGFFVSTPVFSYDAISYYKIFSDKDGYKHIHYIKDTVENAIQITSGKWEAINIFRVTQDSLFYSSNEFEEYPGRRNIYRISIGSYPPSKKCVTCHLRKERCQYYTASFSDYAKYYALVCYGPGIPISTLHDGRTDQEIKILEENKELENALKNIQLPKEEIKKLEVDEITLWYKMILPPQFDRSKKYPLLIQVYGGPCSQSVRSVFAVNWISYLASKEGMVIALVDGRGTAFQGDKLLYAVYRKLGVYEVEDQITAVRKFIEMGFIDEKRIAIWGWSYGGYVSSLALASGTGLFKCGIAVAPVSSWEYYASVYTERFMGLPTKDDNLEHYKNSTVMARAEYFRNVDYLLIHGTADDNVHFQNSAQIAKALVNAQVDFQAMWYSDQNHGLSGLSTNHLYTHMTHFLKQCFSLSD
# T2: soluble FAP (human, UniProt Q12884 26-760, limits assumed)
# T2 sequence: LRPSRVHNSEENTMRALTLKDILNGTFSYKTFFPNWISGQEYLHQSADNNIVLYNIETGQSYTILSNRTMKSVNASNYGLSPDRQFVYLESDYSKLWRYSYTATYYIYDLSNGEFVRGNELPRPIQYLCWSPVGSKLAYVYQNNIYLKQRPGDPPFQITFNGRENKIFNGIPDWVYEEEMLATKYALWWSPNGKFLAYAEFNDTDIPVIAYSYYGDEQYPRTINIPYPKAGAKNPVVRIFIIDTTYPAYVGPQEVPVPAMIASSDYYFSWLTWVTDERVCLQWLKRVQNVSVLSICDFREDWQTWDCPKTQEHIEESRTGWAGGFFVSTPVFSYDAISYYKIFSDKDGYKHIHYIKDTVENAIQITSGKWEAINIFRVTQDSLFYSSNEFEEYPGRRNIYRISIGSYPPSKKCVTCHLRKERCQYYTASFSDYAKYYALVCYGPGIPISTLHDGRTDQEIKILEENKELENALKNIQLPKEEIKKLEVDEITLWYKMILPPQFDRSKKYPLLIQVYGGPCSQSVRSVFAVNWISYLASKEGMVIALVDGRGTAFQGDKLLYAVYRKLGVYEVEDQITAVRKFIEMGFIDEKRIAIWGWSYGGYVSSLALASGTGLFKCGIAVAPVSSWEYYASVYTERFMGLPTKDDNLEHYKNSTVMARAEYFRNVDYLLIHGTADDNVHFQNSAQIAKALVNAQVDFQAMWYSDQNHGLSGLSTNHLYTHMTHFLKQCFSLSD
# B1: CD40.9H3×FAP.LP62 bispecific antibody (bispecific antibody, human IgG1, kappa, L234A L235A)
# heavy 1: EVQLVESGGGLVQPGGSLRLSCAASGFTFIGYSMNWVRQAPGKGLEWVSYISSYESTIYYADSVKGRFTISRDNAKNSLYLQMNSLRAEDTAVYYCARSRITLVRGVPRYFDLWGRGTLVTVSSASTKGPSVFPLAPSSKSTSGGTAALGCLVKDYFPEPVTVSWNSGALTSGVHTFPAVLQSSGLYSLSSVVTVPSSSLGTQTYICNVNHKPSNTKVDKKVEPKSCDKTHTCPPCPAPEAAGGPSVFLFPPKPKDTLMISRTPEVTCVVVSVSHEDPEVKFNWYVDGVEVHNAKTKPREEQYNSTYRVVSVLTVLHQDWLNGKEYKCKVSNKALPAPIEKTISKAKGQPREPQVYVLPPSREEMTKNQVSLLCLVKGFYPSDIAVEWESNGQPENNYLTWPPVLDSDGSFFLYSKLTVDKSRWQQGNVFSCSVMHEALHNHYTQKSLSLSPG
# heavy 2: EVQLVESGGGLVQPGGSLRLSCAASGFTFIGYSMNWVRQAPGKGLEWVSYISSYESTIYYADSVKGRFTISRDNAKNSLYLQMNSLRAEDTAVYYCARSRITLVRGVPRYFDLWGRGTLVTVSSASTKGPSVFPLAPSSKSTSGGTAALGCLVKDYFPEPVTVSWNSGALTSGVHTFPAVLQSSGLYSLSSVVTVPSSSLGTQTYICNVNHKPSNTKVDKKVEPKSCDKTHTCPPCPAPEAAGGPSVFLFPPKPKDTLMISRTPEVTCVVVSVSHEDPEVKFNWYVDGVEVHNAKTKPREEQYNSTYRVVSVLTVLHQDWLNGKEYKCKVSNKALPAPIEKTISKAKGQPREPQVYVYPPSREEMTKNQVSLTCLVKGFYPSDIAVEWESNGQPENNYKTTPPVLDSDGSFALVSKLTVDKSRWQQGNVFSCSVMHEALHNHYTQKSLSLSPGGGSGGGGSGGGGSGGGGSEVQLLESGGGLVQPGGSLRLSCAASGFTFSSRGMSWVRQAPGKCLEWVSFISSSGTYVYYADSVKGRFTISRDNSKNTLYLQMNSLRAEDTAVYYCARDLPRTGVYFGMDVWGQGTTVTVSSGGGGSGGGGSGGGGSGGGGSDIQMTQSPSSLSASVGDRVTITCRASQSIFNYLNWYQQKPGKAPKLLIYGASTLQSGVPSRFSGSGSGTDFTLTISSLQPEDFATYYCQESYSTPYTFGCGTKVEIK
# light: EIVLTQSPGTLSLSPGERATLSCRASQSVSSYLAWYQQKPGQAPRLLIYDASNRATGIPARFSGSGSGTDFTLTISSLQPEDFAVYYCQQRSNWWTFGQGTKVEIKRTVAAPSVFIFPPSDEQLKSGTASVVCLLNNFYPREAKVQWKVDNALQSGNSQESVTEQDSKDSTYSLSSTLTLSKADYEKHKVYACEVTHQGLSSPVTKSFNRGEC
# notes: 2+1 format: two anti-CD40 9H3 Fabs on an IgG1 Fc with L234A, L235A, D265S and heterodimerization mutations; Ratio 1:1:2
# Assays:
# cyno CD40 on B cells = molecular target: T3, cyno CD40 on B cells (cynomolgus monkey, UniProt G7PG38 21-278); assay: binding to cyno CD40-positive B cells
# T3 construct: whole, on cells; also called Cyno CD40-positive B cell
# human FAP on cells = molecular target: T1, human FAP on cells; assay: cell-based or functional assay
# soluble FAP = molecular target: T2, soluble FAP; assay: cell-based or functional assay
binder,measurement,setting,value
B1,EC50,cyno CD40 on B cells,4.69 nM
same,"IL12p40 release, human DC + HFF1 co-culture, EC50, soluble FAP 0 ng/mL",human FAP on cells,0.13 nM
same,"IL12p40 release, human DC + HFF1 co-culture, EC50, soluble FAP 120 ng/mL",soluble FAP,0.46 nM
same,"IL12p40 release, human DC + HFF1 co-culture, EC50, soluble FAP 480 ng/mL",soluble FAP,0.8 nM

# — US20250376536A1 (Bristol-Myers Squibb, published 2025)
